Substitutions are numbered along the chain they refer to.
Tests used:
Settings in all cases: both partners purified
[1] = molecular target: T1, IQGAP1 GRD1-CT (aa 863-1657) (human, UniProt P46940 863-1657); assay: stopped-flow fluorometry; tGppNHp (tamra-GppNHp)-bound CDC42 or CDC42 Q61L (0.2 μM) rapidly mixed with IQGAP1 variant (2-10 μM GRD1-CT for Q61L); Kd = koff/kon; 30 mM Tris-HCl pH 7.5, 10 mM KH2PO4/K2HPO4, 5 mM MgCl2, 3 mM DTT
T1 construct: human IQGAP1, GRD, RGCT and CT domains, aa 863-1657; The GST tag was cleaved 'if needed'; also called C-terminal half of IQGAP1; C-terminal 795 amino acids of IQGAP1
T1 sequence (looked up): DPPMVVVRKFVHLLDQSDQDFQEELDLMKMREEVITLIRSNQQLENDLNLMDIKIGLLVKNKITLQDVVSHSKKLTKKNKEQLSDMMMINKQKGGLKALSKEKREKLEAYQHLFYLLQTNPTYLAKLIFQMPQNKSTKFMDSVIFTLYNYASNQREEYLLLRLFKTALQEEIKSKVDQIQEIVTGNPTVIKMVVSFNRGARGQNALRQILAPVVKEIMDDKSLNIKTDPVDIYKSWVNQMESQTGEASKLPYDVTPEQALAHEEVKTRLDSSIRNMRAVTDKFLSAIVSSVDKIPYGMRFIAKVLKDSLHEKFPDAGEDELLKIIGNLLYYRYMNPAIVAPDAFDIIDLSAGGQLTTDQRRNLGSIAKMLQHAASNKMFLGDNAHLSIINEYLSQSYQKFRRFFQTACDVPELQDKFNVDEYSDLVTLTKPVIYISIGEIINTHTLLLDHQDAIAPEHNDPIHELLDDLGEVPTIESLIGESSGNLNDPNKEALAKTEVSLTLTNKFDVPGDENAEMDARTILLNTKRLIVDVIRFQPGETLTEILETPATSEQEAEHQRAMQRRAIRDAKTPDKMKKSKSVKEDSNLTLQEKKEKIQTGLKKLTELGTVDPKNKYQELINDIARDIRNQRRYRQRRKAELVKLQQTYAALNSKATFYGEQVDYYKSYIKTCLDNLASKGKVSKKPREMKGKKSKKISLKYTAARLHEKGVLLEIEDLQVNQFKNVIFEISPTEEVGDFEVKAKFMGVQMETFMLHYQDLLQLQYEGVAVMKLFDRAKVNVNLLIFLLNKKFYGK

[2] = molecular target: T2, IQGAP1 GRD1-RGCT S1443E (aa 877-1558) (human, UniProt P46940 877-1558, S1443E); assay: as above
T2 construct: human IQGAP1 aa 877-1558 with the phosphomimetic mutation S1443E (printed as S1143E in the methods, S1443E everywhere else), from the vector pET46 EkLIC; source: E. coli (pLysS BL21(DE3), CodonPlusRIL or BL21(Rosetta)), purified (Ni-NTA, gel filtration)
T2 sequence (looked up): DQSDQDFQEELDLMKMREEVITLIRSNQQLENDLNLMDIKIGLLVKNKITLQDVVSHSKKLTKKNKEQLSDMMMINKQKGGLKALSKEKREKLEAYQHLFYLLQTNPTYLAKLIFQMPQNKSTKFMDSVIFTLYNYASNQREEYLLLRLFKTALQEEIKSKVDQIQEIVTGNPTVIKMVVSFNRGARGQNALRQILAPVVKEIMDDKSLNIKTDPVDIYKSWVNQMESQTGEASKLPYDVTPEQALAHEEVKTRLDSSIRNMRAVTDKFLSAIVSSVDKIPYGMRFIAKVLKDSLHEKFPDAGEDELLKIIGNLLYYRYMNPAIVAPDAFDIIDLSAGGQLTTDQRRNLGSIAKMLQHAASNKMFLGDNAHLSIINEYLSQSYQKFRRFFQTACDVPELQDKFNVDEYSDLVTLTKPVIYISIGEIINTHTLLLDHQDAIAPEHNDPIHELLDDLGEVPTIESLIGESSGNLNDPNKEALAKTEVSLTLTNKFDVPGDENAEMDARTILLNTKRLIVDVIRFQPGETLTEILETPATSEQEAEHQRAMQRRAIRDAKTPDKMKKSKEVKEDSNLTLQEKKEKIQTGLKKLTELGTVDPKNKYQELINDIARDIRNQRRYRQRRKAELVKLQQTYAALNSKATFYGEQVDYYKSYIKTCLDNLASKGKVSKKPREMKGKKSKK

[3] = molecular target: T3, IQGAP1 GRD1-RGCT wild type (aa 877-1558) (human, UniProt P46940 877-1558); assay: stopped-flow fluorometry; mGppNHp-bound RHO protein (0.2 μM) rapidly mixed with IQGAP1 variant (2 μM, or 2-12 μM for kon); koff by displacement with 10 μM non-fluorescent GppNHp-bound GTPase; Kd = koff/kon; 30 mM Tris-HCl pH 7.5, 10 mM KH2PO4/K2HPO4, 5 mM MgCl2, 3 mM DTT
T3 construct: human IQGAP1, GRD and RGCT domains, lacks the last 99 amino acids, aa 877-1558; also called GRD1-RGCT^WT; IQGAP1^877-1558
T3 sequence (looked up): T2 sequence (looked up) with E567S

Kd [1]: 0.38 µM | Kd [2]: 4.19 µM | Kd [3]: 2.72 µM
B1: CDC42 (aa 1-178) (domain or fragment)
chain: not shown
notes: human CDC42, C-terminally truncated, aa 1-178; Loaded non-covalently with mGppNHp, tGppNHp, mGDP or non-fluorescent GppNHp; the nucleotide is named in the format of each assay; also called CDC42^WT; CDC42-mGppNHp
